Patent US20040126856A1, “Factor ixa: factor Vllla interaction and methods therefor” (priority 2004, published 2004)

How the values were obtained:
[1] = target: T1, A2 subunit of factor VIIIa (Homo sapiens, UniProt P00451); experiment: Fluorescence quenching of the dansyl moiety in dEGR-IXa by the A2 subunit; format: binding; conditions: for Change in dansyl fluorescence emission intensity on titration with A2 subunit: 100 μM PL (FIG. 4)
T1 construct: cleaved by thrombin at R372-S373, R740-S741, and R1689-S1690 to yield factor VIIIa
T1 sequence (P00451 392-759): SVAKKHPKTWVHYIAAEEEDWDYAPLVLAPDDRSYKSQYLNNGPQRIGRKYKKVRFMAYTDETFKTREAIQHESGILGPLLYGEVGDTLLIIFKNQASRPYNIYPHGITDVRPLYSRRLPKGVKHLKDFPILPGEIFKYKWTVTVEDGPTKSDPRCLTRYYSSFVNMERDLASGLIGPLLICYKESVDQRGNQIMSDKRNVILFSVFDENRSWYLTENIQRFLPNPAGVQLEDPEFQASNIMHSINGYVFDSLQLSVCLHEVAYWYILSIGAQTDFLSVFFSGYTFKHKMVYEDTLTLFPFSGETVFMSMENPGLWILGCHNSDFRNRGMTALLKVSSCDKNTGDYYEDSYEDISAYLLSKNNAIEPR
Procedure: Fluorescence Quenching of the Dansyl Moiety in dEGR-IXa by the A2 Subunit.
The effect of the A2 subunit on the emission intensity of the dansyl moiety in each dEGR-IXa protein was determined using the SLM AB2 spectrofluorometer. Each reaction mixture contained 220 nM dEGR-IXa in 20 mM Hepes, pH 7.2, 100 mM NaCl, 5 mM CaCl2, 0.01% Tween, 200 μg/ml BSA and 100 μM PL vesicles. The excitation wavelength was 340 nm (slit width, 8 nm) and the emission wavelength was 540 nm (slit width; 8 nm). First, blank values (in triplicate) were obtained for the buffer containing PL. dEGR-IXa was then added and the emission intensity in the absence of the A2 subunit was recorded. Each reaction mixture was subsequently titrated with the A2 subunit and the emission readings (in triplicate) were obtained at each time point. The fluorescence emission intensity at each point was corrected for increases in the reaction volume prior to analysis of the data. […] Data are presented as F/F0 where F0 is the emission intensity in the absence of A2 subunit and F is the intensity at a given A2 subunit concentration.

[2] = target: T2, factor X (Homo sapiens, UniProt P00742); experiment: Activation of factor X by factor IXa proteins in the presence of only Ca2+ and PL (absence of factor VIIIa); format: biochemical; conditions: 20 nM factor IXa; for kcat: 5 mM CaCl2, absence of factor VIIIa; for Km: 5 mM CaCl2, factor X 25 nM to 3 μM, absence of factor VIIIa
T2 construct: Normal plasma factor IX (IXNP) and factor X was isolated as previously described; from tissue; host or cells: normal plasma
Procedure: Activation of Factor X by Each Factor IXa Protein in the Presence of Only Ca^2+ and PL.
For these studies, each factor IX was activated with factor XIa/Ca^2+ as described above. For factor X activation studies, the concentration of factor IXa was kept at 20 nM and the buffer used was TBS/BSA (TBS with […] BSA) containing 5 mM CaCl2. The concentrations of PL used were 10, 25, 50, and 100 μM in different sets of experiments. The concentration of factor X at each PL concentration ranged from 25 nM to 3 μM. The activations were carried out for 5-15 min and the amount of factor Xa generated was measured by hydrolysis of S-2222 as described previously (Mather and Bajaj, 1999; Mather et al., 1997). The Km and kcat values were obtained using the program GraFit from Erithacus Software.

[3] = target: T1, A2 subunit of factor VIIIa; experiment: EC50 (functional Kd) of interaction of factor IXa proteins with A2 subunit, factor Xa generation (S-2222); format: biochemical; conditions: 5 nM factor IXa, 250 nM factor X, 25 μM PL, 5 mM CaCl2 (FIG. 1)
Procedure: Determination of EC50 of Interaction of Factor IXa Proteins with A2 Subunit.
The EC50 (functional Kd) of binding of each factor IXa protein with A2 subunit was measured essentially as described previously for its interaction with intact factor VIIIa (Mather and Bajaj, 1999; Mather et al., 1997). For these experiments, concentrations of factor IXa and factor X were kept constant, and the rates of formation of factor Xa were determined at increasing concentrations of A2 subunit. Reaction mixtures contained 5 nM IXa protein, 250 nM factor X, 25 μM PL and various concentrations of A2 subunit in TBS/BSA, pH 7.5 containing 5 mM CaCl2. Reactions were carried out at 37° C. for 5-20 minutes and stopped by adding 1 μL of 500 mM EDTA. The amount of factor Xa generated was determined by S-2222 hydrolysis as described previously (Mather and Bajaj, 1999; Mather et al., 1997). The EC50 was obtained by fitting the data to a single site ligand binding equation (Eq. 1) by non-linear regression analysis using the program GraFit from Erithacus Software. [formula]
Where V is the rate of formation of factor Xa at a given concentration of the A2 subunit, denoted by L, and Vmax is the rate of factor Xa formation by the factor IXa:A2 subunit complex. EC50 is the functional Kd defined as the concentration of free A2 subunit yielding 50% of the Vmax. The background rate of factor Xa generation was obtained by carrying out the reaction in the absence of the A2 subunit.

T2 sequence (P00742 183-488 limits assumed): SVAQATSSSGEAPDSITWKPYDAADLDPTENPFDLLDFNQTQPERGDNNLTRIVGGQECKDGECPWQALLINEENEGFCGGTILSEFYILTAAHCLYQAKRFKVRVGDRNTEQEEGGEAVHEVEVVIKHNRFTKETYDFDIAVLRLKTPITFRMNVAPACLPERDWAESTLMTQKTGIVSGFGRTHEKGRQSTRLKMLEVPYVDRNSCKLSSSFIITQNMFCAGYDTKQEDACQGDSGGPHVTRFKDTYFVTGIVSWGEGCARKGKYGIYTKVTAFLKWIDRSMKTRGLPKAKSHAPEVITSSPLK
T2 sequence (P00742 41-179 limits assumed): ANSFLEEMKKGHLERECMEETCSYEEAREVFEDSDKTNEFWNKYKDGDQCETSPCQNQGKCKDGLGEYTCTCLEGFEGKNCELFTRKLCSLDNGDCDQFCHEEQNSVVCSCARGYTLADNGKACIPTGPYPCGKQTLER

With “IXaR333Q: activated factor IX point mutant in which Arg333 is replaced by Gln” the “Change in dansyl fluorescence emission intensity on titration with A2 subunit” value ([1]; 220 nM dEGR-IXa protein) was “little if any change”, the kcat ([2]; PL 10 μM) was 0.012 min⁻¹ and the Km ([2]; PL 10 μM) was 0.11 µM. It also gave a kcat ([2]; PL 25 μM) of 0.018 min⁻¹, a Km ([2]; PL 25 μM) of 0.18 µM and a kcat ([2]; PL 50 μM) of 0.030 min⁻¹. The Km ([2]; PL 50 μM) was 0.23 µM, the kcat ([2]; PL 100 μM) was 0.040 min⁻¹ and the Km ([2]; PL 100 μM) was 0.61 µM. For the same substance, the “Ability of the A2 subunit to enhance/potentiate the factor X-activating activity of the IXa protein” value [3] was “severely impaired” and the “EC50 (functional Kd), apparent Kd of interaction with the A2 subunit, single site-binding model” value [3] was “could not be calculated”.

For “IXaWT: activated recombinant wild-type factor IX (IXWT)”, the “Change in dansyl fluorescence emission intensity on titration with A2 subunit” value ([1]; 220 nM dEGR-IXa protein) was “dose-dependent decrease”, the “Plateau value for F/F0” value ([1]; bimolecular association model fit, 220 nM dEGR-IXa protein, 100 μM PL) was 0.59±0.05 and the Kd ([1]; bimolecular association model fit, read-out: Apparent KdA2 from fluorescence quenching) was about 100 nM. The kcat ([2]; PL 10 μM) was 0.010 min⁻¹, the Km ([2]; PL 10 μM) was 0.09 µM and the kcat ([2]; PL 25 μM) was 0.012 min⁻¹. It also gave a Km ([2]; PL 25 μM) of 0.12 µM, a kcat ([2]; PL 50 μM) of 0.024 min⁻¹ and a Km ([2]; PL 50 μM) of 0.24 µM. It also gave a kcat ([2]; PL 100 μM) of 0.038 min⁻¹, a Km ([2]; PL 100 μM) of 0.57 µM and an EC50 ([3]; read-out: EC50 (functional Kd), apparent Kd of interaction with the A2 subunit, single site-binding model) of 257 ± 31 nM.
